This is an account of results in US20220298257A1 (ELPIS BIOPHARMACEUTICALS, published 2022).

Positions count from the first letter of the chain named.

The target of test [1] is T1, full-length human CD22 fused with flag and Myc tags at the C-terminus, on HEK293 or K562 cells (human, UniProt P20273 20-847).
T1 construct: whole, on cells; also called CD22/K562; CD22/HEK293; not shown: C-terminal flag and Myc tags of the pCMV6-Entry vector
T1 sequence (looked up): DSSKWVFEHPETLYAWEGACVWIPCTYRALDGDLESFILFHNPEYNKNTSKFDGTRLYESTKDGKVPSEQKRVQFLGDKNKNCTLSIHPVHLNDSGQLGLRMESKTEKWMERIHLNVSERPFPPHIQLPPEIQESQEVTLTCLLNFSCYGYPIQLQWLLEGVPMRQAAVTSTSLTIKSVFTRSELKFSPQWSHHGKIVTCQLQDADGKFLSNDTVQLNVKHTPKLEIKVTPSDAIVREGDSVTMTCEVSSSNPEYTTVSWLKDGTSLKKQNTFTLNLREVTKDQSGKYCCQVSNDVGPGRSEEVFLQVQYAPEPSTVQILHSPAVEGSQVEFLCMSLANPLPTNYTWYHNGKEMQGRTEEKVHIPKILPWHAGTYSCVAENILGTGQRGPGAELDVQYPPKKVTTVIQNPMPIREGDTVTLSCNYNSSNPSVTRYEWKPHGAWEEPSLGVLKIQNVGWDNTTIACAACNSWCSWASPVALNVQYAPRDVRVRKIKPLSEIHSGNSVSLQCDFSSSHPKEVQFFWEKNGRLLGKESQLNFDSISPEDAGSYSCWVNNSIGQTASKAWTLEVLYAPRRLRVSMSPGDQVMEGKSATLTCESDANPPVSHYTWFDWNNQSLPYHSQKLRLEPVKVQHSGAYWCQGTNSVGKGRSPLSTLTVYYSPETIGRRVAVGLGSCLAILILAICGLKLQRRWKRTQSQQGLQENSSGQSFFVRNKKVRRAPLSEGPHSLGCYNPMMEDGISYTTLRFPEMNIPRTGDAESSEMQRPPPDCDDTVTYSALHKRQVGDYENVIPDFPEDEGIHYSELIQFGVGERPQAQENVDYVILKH
The test is described as follows: FACS, antibody fragment titrated on CD22-expressing cells, anti-His Alexa 488. (In general: Flow cytometry measures light scatter and fluorescence of single cells or particles in a stream.)

The target in test [2] is T1, full-length human CD22 fused with flag …. The test is described as follows: cell-based or functional assay.
Test [3] has the same target. As to the kind of experiment: FACS on CD22-expressing cells (HEK293-CD22 by the table's head), anti-hFc Alexa 488.
Test [4] shares this target. The test is described as follows: cell-based or functional assay. This is another data set of the same source.
Test [5] deals with T2, CD123 on the surface of CHO-K1 cells (UniProt P26951 19-378).
T2 construct: whole, on cells; Negative control cells that express CD123 but not CD22; also called CHOK1-CD123; cell surface CD123
T2 sequence (P26951 19-378 limits assumed): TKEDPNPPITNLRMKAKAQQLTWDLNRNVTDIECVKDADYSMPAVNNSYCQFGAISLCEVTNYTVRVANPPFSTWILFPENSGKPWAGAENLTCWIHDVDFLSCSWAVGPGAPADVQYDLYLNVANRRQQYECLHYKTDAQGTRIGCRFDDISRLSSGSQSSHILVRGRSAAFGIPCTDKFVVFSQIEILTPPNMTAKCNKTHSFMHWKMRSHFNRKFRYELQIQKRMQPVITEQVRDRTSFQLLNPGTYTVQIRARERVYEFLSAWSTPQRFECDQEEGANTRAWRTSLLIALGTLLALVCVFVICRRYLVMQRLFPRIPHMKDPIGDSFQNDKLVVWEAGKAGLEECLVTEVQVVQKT
The test is described as follows: FACS on CHO-K1 cells expressing CD123, anti-hFc Alexa 488.

Test [6] addresses T1, full-length human CD22 fused with flag …. The test is described as follows: ELISA, IgG format; antigen format not described. A general note: ELISA stands for enzyme-linked immunosorbent assay.
Test [7] concerns the target T3, human CD22-Fc fusion protein (human, UniProt P20273 20-687, limits assumed).
T3 construct: also called recombinant CD22-Fc fusion protein; not shown: Fc part
T3 sequence (looked up): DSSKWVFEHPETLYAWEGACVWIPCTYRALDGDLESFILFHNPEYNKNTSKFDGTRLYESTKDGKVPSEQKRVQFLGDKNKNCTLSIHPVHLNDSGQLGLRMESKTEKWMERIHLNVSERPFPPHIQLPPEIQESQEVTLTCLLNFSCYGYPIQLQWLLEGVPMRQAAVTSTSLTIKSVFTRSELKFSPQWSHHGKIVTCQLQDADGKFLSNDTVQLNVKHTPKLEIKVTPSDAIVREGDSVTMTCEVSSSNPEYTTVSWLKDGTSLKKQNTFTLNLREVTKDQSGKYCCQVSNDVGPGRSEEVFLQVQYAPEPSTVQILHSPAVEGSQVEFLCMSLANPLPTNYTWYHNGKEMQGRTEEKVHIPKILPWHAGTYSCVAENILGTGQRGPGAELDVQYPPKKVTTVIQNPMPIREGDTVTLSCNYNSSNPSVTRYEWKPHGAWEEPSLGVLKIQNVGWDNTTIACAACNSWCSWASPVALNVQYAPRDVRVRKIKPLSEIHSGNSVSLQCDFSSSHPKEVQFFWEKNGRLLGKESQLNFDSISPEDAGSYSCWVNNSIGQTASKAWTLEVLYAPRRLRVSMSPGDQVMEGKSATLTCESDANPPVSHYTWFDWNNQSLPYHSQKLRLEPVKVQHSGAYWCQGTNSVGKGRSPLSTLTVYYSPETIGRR
The test is described as follows: SPR Biacore T200; CD22-Fc captured on Protein G chip, scFv as analyte.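 Also: run in 1×HBST buffer, with the response of reference flow cell 1 subtracted from the CD22 capture cell and kinetics fitted in Biacore T200 evaluation software.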 In general terms: SPR reads the build-up and loss of mass on a sensor chip optically.

Test [8] concerns the target T1, full-length human CD22 fused with flag …. As to the kind of experiment: FACS, scFv titrated on CD22-expressing cells, anti-His Alexa 488.
The target is the same in test [9]. The test is described as follows: FACS on CD22 K562 cells, scFv alone (M971 binning experiment).
For test [10] the target is unchanged. As to the kind of experiment: FACS on CD22 K562 cells, competitor 0.77 nM BL22.
Test [11] has the same target. As to the kind of experiment: FACS on CD22 K562 cells, competitor 5.13 nM M971.
For test [12] the target is unchanged. As to the kind of experiment: FACS on CD22 K562 cells, competitor 0.175 nM BL22.
Test [13] has the same target. As to the kind of experiment: FACS on CD22 K562 cells, competitor 1.77 nM M971.
Test [14] shares this target. As to the kind of experiment: FACS on CD22 K562 cells, scFv alone (BL22 binning experiment).

Broadly, the EC50 is the midpoint of the concentration-response curve. Lower therefore signals an effect from little substance. As a reminder, the Kd is the concentration at which binding is half-saturated. Lower therefore signals a tighter complex. Broadly, the koff is the first-order rate constant of dissociation. Low values mean a long-lived complex, high ones a short-lived complex. What is called kon is the rate constant with which the complex forms. For orientation: IC50 means the concentration at which inhibition is half-maximal. A higher IC50 goes with a need for much substance.

B1: EP160-F10 (a single domain antibody) (VHH)
VHH: EVQLVESGGGVVQPGRSLRLSCVASGFTFRNYGMQWVRQTPDKGLEWVAVTAHDGTVQYYVDSVKGRFTISRDNSKDTLYLQMNSLRVADTAVYYCAKEATPRAADHFDYWGQGTLGTVSS
notes: Human VH-only single domain antibody from a human library (not a camelid VHH); not shown: C-terminal flag and 6xHIS tag
The molecule B1 gave an EC50 in [1] of 9 nM.

B2: EP160-D02 (IgG) (antibody, V domains shown)
VH: QVQLVQSGAEVKKPGASVKVSCKASGYTFTSYGISWVRQAPGQGLEWMGWISAYNGNTNYAQKLQGRVTMTTDTSTSTAYMELRSLRSDDTAVYYCARDPLEPLESDYWGQGTLVTVSS
VL: EIVMTQSPATLSVSPGEGVTLSCRASQSVSSNLAWYQQRPGQAPRLLIYGASIKATDVPDRFSGGGSGTDFSLSITNLQSEDFAVYYCQQYHTWPPVTFGGGTKVEIK
notes: also called EP160-D2 (IgG)
B2: in test [2], the “T½ (Hour) of internalization, CD22/HEK293 cells, pHrodo secondary” value turned out to be 5.06 Hour. The EC50 was 0.101 nM in test [3] and 0.039 nM in test [6]. For the same molecule, in test [4], the “EC50 in ADCC assay (Promega ADCC Bioreporter, CD22/HEK293 target cells)” value stood at 1.95 nM. The binding result in [5] is given as “no binding”.

B3: EP160-H02 (IgG) (antibody, V domains shown)
VH: QVQLVQSGAEVKKPGASVKVSCKASGYTFTSYGISWVRQAPGQGLEWMGGIIAYNGNTNYAQKLQGRVTMTTDTSTSTAYMELRSLRSDDTAVYYCARDPPEYSSSAGTDYWGQGTLVTVSS
VL: B2 VL with S72T, P95S
Regarding B3, the “EC50 in ADCC assay (Promega ADCC Bioreporter, CD22/HEK293 target cells)” value in test [4] was roughly 73.8 nM.

B4: EP97-B03 (IgG) (antibody, V domains shown)
VH: QLVQSGAEVKKPGASVKVSCKASGYTFSSYGITWVRQAPGQGLEWMGWISAYNGNTNYAQKFQGRVTLTTDTSTSIAYMELRSLTSDDTAVYYCATGGQEDYWGQGTLVTVSS
VL: not shown
Regarding B4, the “T½ (Hour) of internalization, CD22/HEK293 cells, pHrodo secondary” value in [2] was found to be 5.26 Hour. Also, in [4], the “EC50 in ADCC assay (Promega ADCC Bioreporter, CD22/HEK293 target cells)” value turned out to be 3.71 nM.

B5: EP160-F04 scFv (scFv)
scFv: EVQLVQSGAEVKKPGASVKVSCKASGYTFTSYGISWVRQAPGQGLEWMGWISAYNGNTNYAQKLQGRVTMTTDTSTSTAYMELRSLKSDDTAVYYCAISIGAFDIWGQGTMVTVSSGGGGSGGGGSGGGGSEIVMTQSPATLSVSPGEEVTLSCRASQSVSSNLAWYQQRPGQAPRLLIYGASIKATDVPDRFSGGGSGTDFTLSISNLQSEDFAVYYCQQYHTWPPVTFGGGTKVEIK
notes: VH-VL orientation; not shown: C-terminal flag and 6xHIS tag
In [7], B5 showed a Kd of 5.89 nM, a koff of 0.000283 s⁻¹ and a kon of 40500 M⁻¹ s⁻¹. For the same molecule, the response in test [8] was half-maximal at 2.79 nM (EC50).

B6: EP160-D02 scFv (scFv)
scFv: QVQLVQSGAEVKKPGASVKVSCKASGYTFTSYGISWVRQAPGQGLEWMGWISAYNGNTNYAQKLQGRVTMTTDTSTSTAYMELRSLRSDDTAVYYCARDPLEPLESDYWGQGTLVTVSSGGGGSGGGGSGGGGSEIVMTQSPATLSVSPGEGVTLSCRASQSVSSNLAWYQQRPGQAPRLLIYGASIKATDVPDRFSGGGSGTDFSLSITNLQSEDFAVYYCQQYHTWPPVTFGGGTKVEIK
notes: VH-VL orientation; made in E. coli, His-tag purified; also called EP160-D2; not shown: C-terminal flag and 6xHIS tag
As to B6, the EC50 in test [9] worked out at 0.125 nM; in test [11], 0.144 nM; in [13], 0.0946 nM; in [8], 0.24 nM. In addition, the IC50 worked out at 0.0898 nM in [10], 0.0811 nM in test [12] and 0.0822 nM in test [14]. The same molecule displayed a Kd in test [7] of 0.0194 nM. In test [7], this molecule registered a koff of 0.000107 s⁻¹. Moreover, the kon in test [7] amounted to 5.51e+06 M⁻¹ s⁻¹.

B7: EP160-G04 scFv (scFv)
scFv: QVQLVQSGAEVKKPGASVKVSCKASGYTFSSYGITWVRQAPGQGLEWMGWISAYNGNTNYAQKFQGRVTLTTDTSTSIAYMELRSLTSDDTAVYYCATGGQEDYWGQGTLVTVSSGGGGSGGGGSGGGGSEIVMTQSPATLSVSPGERATLSCRASQSVSSNLAWYQQKPGQAPRLLIYDASTRATGIPARFSGSGSGTEFTLTISSLQSEDFAVYYCQQYHNWAPLTFGGGTKVGIK
notes: as for B5
Consider B7, for which, in test [7], binding was put at a Kd of 0.322 nM, the koff is 4.03e-05 s⁻¹ and the kon worked out at 125000 M⁻¹ s⁻¹. Also, in test [8], the EC50 stood at 1.1 nM.

B8: M971 IgG antibody (antibody, V domains shown)
VH: QVQLQQSGPGLVKPSQTLSLTCAISGDSVSSNSAAWNWIRQSPSRGLEWLGRTYYRSWYNDYAVSVKSRITINPDTSKNQFSLQLNSVTPEDTAVYYCAREVTGDLEDAFDIWGQGTMVTVSS
VL: DIQMTQSPSSLSASVGDRVTITCRASQTIWSYLNWYQQRPGKAPNLLIYAASSLQSGVPSRFSGRGSGTDFTLTISSLQAEDFATYYCQQSYSIPQTFGQGTKLEIK
notes: Known fully human anti-CD22 antibody used as IgG; also called IgG M971
Regarding B8, the “T½ (Hour) of internalization, CD22/HEK293 cells, pHrodo secondary” value in test [2] was 6.07 Hour. The same molecule came in with an EC50 in [6] of 0.059 nM.

B9: EP97-A10 scFv (scFv)
scFv: QVQLVQSGAEVKRPGASVKVSCKASGYTFTSYGISWVRQAPGQGLEWMGWISAYNGNTNYAQKLQGRVTMTTDTSTSTAYMELRSLRSDDTAVYYCARDPGIAVAGTVDYWGQGTLVTVSSGGGGSGGGGSGGGGSEIVMTQSPATLSVSPGEGVTLSCRASQSVSSNLAWYQQRPGQAPRLLIYGASIKATDVPDRFSGGGSGTDFTLSISNVQSEDFAVYYCQQYHTWTPVTFGGGTKVEIK
notes: as for B5
Regarding B9, in test [7], binding was characterised by a dissociation constant (Kd) of 3.57 nM, the koff turned out to be 0.000145 s⁻¹ and the kon worked out at 40500 M⁻¹ s⁻¹. In test [8], the EC50 amounted to 1 nM.
